Consider one sequence from article doi:10.1101/2023.02.21.529469.

This data set has as its target T1, His-Lmo2795 (RpiR family regulator) (UniProt Q8Y3P0).
T1 sequence: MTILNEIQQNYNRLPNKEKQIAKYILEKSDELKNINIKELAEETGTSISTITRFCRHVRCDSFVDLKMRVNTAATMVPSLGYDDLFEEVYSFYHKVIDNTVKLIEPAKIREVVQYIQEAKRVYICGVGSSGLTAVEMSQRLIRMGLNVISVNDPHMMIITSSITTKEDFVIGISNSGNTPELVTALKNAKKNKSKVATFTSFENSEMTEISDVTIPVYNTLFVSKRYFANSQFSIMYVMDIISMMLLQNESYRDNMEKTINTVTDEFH
Briefly: EMSA. Background: Mobility shift assays separate free from complexed probe on a gel.

Turning to “CGGAACACCCAACAAATTACCAATCGAATAAACTAACAAAGTCCTTTCAAGCGAAAGGACTTTTTATTTTTAACAGCAACGTCATTTTTTAAAGCTAGTTTCCGCAACTATCCACGCTAAAACATGAAAATCATTTTCATTTAATTGATATTGATAAAATCATTTTCTTATGATATAGTCTGTTTGAAAACGCATACTTTACACTGAAACACAGTATAGAGGAGGAGTATCAGTGGGCAATTCTGTTATGGAAAAAATCAAAGGTGGGTTAG (double strand) [lmo2795-nanE upstream (promoter) fragment]”, the binding entry is “binds”.
